Experimental data as given in article PMC2120133 (The Journal of Cell Biology, 1994).

Target: Gal4 DNA-binding domain-Nup1p carboxy-terminal fusion (pSWB11) (yeast, UniProt P20676 655-1076)
Assay: two-hybrid

Sequence of Gal4 DNA-binding domain-Nup1p carboxy-terminal fusion (pSWB11) (P20676 655-1076): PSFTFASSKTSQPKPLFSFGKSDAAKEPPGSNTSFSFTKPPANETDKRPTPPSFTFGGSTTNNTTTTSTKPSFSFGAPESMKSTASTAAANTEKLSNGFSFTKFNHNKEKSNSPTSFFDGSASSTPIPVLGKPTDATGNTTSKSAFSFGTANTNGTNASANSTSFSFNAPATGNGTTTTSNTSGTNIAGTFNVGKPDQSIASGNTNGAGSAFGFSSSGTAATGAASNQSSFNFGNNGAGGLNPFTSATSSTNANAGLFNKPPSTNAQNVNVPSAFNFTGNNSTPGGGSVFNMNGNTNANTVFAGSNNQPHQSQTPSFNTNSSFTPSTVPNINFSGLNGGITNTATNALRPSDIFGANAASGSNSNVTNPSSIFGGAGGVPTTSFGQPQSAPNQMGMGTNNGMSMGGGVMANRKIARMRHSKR

fold increase in beta-galactosidase activity: > 160 fold
B1: Gal4 activation domain-Srp1p fusion (pSWB17) (domain or fragment, yeast, UniProt Q02821 30-542, looked up)
chain: DELRRRRDTQQVELRKAKRDEALAKRRNFIPPTDGADSDEEDESSVSADQQFYSQLQQELPQMTQQLNSDDMQEQLSATVKFRQILSREHRPPIDVVIQAGVVPRLVEFMRENQPEMLQLEAAWALTNIASGTSAQTKVVVDADAVPLFIQLLYTGSVEVKEQAIWALGNVAGDSTDYRDYVLQCNAMEPILGLFNSNKPSLIRTATWTLSNLCRGKKPQPDWSVVSQALPTLAKLIYSMDTETLVDACWAISYLSDGPQEAIQAVIDVRIPKRLVELLSHESTLVQTPALRAVGNIVTGNDLQTQVVINAGVLPALRLLLSSPKENIKKEACWTISNITAGNTEQIQAVIDANLIPPLVKLLEVAEYKTKKEACWAISNASSGGLQRPDIIRYLVSQGCIKPLCDLLEIADNRIIEVTLDALENILKMGEADKEARGLNINENADFIEKAGGMEKIFNCQQNENDKIYEKAYKIIETYFGEEEDAVDETMAPQNAGNTFGFGSNVNQQFNFN
